In one test the target is T1, human PAC1 receptor (human, UniProt P41586 21-468).
T1 sequence: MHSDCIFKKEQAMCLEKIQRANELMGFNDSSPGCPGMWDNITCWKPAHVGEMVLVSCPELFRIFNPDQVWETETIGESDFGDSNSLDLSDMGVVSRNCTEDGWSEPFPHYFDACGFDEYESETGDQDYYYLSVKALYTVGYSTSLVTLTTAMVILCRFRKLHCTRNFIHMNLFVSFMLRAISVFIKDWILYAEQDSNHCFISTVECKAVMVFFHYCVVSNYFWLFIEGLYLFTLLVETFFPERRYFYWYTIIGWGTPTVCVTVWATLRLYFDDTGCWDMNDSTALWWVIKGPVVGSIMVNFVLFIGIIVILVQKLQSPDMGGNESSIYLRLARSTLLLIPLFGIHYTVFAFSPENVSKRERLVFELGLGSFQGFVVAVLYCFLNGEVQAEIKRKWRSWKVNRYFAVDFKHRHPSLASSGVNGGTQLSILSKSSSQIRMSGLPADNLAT
Kind of test: cell-based or functional assay.

For a further test, the target named is human CGRP receptor (human, UniProt Q16602 23-461; O60894 27-148). As to the kind of experiment: cell-based or functional assay.
Chain of human CGRP receptor (Q16602 23-461 limits assumed, chain 1 of 2): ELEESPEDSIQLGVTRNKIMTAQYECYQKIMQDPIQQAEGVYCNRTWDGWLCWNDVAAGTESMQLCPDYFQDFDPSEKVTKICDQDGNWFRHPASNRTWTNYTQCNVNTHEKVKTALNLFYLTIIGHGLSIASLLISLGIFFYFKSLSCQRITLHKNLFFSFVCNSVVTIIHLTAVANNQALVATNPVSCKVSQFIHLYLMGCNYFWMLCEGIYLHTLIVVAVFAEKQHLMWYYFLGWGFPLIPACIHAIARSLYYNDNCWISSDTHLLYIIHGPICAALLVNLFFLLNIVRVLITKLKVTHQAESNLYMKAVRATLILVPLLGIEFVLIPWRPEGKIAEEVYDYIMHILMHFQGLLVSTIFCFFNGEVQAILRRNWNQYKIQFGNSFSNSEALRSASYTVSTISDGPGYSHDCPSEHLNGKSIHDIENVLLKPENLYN
Chain of human CGRP receptor (O60894 27-148 limits assumed, chain 2 of 2): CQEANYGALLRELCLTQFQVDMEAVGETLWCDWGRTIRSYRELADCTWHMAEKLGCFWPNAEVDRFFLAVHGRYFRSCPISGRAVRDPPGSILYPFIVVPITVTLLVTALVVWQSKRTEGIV

B1: iPS:327687 (bispecific antibody, human IgG1, kappa, N297G)
light 1: DIQLTQSPSFLSASVGDRVTITCRASQSIGRSLHWYQQKPGKAPKLLIKYASQSLSGVPSRFSGSGSGTEFTLTISSLQPEDFATYYCHQSSRLPFTFGPGTKVDIKRTVAAPSVFIFPPSDEQLKSGTASVVCLLNNFYPREAKVQWKVDNALQSGNSQESVTEQDSKDSTYSLESTLTLSKADYEKHKVYACEVTHQGLSSPVTKSFNRGEC
heavy 1: not shown
light 2: EIVLTQSPGTLSLSPGERATLSCRASQSVSSGYLTWYQQKPGQAPRLLIYGASSRATGIPDRFSGSGSGTDFTLTISRLEPEDFAVYYCQQYGNSLSRFGQGTKLEIKRTVAAPSVFIFPPSDEQLKSGTASVVCLLNNFYPREAKVQWKVDNALQSGNSQESVTEQDSKDSTYSLKSTLTLSKADYEKHKVYACEVTHQGLSSPVTKSFNRGEC
heavy 2: not shown
As to B1, the “% inhibition of human PAC1” value in the test with human PAC1 receptor is 62%. In the test with human CGRP receptor, the “% inhibition of human CGRPR” value was found to be 91%.

B2: iPS:327691 (bispecific antibody, human IgG1, kappa, lambda, N297G)
light 1: DIQLTQSPSFLSASVGDRVTITCRASQSIGRSLHWYQQKPGKAPKLLIKYASQSLSGVPSRFSGSGSGTEFTLTISSLQPEDFATYYCHQSSRLPFTFGPGTKVDIKRTVAAPSVFIFPPSDEQLKSGTASVVCLLNNFYPREAKVQWKVDNALQSGNSQESVTEQDSKDSTYSLESTLTLSKADYEKHKVYACEVTHQGLSSPVTKSFNRGEC
heavy 1: not shown
light 2: QSVLTQPPSVSAAPGQKVTISCSGSSSNIGNNYVSWYQQLPGTAPKLLIYDNNKRPSGIPDRFSGSKSGTSTTLGITGLQTGDEADYYCGTWDSRLSAVVFGGGTKLTVLGQPKANPTVTLFPPSSEELQANKATLVCLISDFYPGAVTVAWKADGSPVKAGVETTKPSKQSNNKYAAKSYLSLTPEQWKSHRSYSCQVTHEGSTVEKTVAPTECS
heavy 2: QVQLVESGGGVVQPGRSLRLSCAASGFTFSSFGMHWVRQAPGKGLEWVAVISFDGSIKYSVDSVKGRFTISRDNSKNTLFLQMNSLRAEDTAVYYCARDRLNYYESSGYYHYKYYGMAVWGQGTTVTVSSASTKGPSVFPLAPSSKSTSGGTAALGCLVKDYFPEPVTVSWNSGALTSGVHTFPAVLQSSGLYSLESVVTVPSSSLGTQTYICNVNHKPSNTKVDKKVEPKSCDKTHTCPPCPAPELLGGPSVFLFPPKPKDTLMISRTPEVTCVVVDVSHEDPEVKFNWYVDGVEVHNAKTKPCEEQYGSTYRCVSVLTVLHQDWLNGKEYKCKVSNKALPAPIEKTISKAKGQPREPQVYTLPPSRKEMTKNQVSLTCLVKGFYPSDIAVEWESNGQPENNYKTTPPVLKSDGSFFLYSKLTVDKSRWQQGNVFSCSVMHEALHNHYTQKSLSLSPGK
For the molecule B2, the “% inhibition of human PAC1” value with human PAC1 receptor came to 25%. The “% inhibition of human CGRPR” value with human CGRP receptor is 73%.

B3: iPS:327688 (bispecific antibody, human IgG1, kappa, N297G)
light 1: EIVLTQSPATLSLSPGERATLSCRASQSVGRSLHWYQQKPGQAPRLLIKYASQSLSGIPARFSGSGSGTDFTLTISSLEPEDFAVYYCHQSSRLPFTFGPGTKVDIKRTVAAPSVFIFPPSDEQLKSGTASVVCLLNNFYPREAKVQWKVDNALQSGNSQESVTEQDSKDSTYSLESTLTLSKADYEKHKVYACEVTHQGLSSPVTKSFNRGEC
heavy 1: not shown
light 2: EIVLTQSPGTLSLSPGERATLSCRASQSVSSGYLTWYQQKPGQAPRLLIYGASSRATGIPDRFSGSGSGTDFTLTISRLEPEDFAVYYCQQYGNSLSRFGQGTKLEIKRTVAAPSVFIFPPSDEQLKSGTASVVCLLNNFYPREAKVQWKVDNALQSGNSQESVTEQDSKDSTYSLKSTLTLSKADYEKHKVYACEVTHQGLSSPVTKSFNRGEC
heavy 2: not shown
As for B3, the “% inhibition of human PAC1” value with human PAC1 receptor was 103%. Moreover, the “% inhibition of human CGRPR” value with human CGRP receptor turned out to be 89%.

B4: iPS:327705 (bispecific antibody, human IgG1, kappa, lambda, N297G)
light 1: DIQLTQSPSFLSASVGDRVTITCRASQSIGRSLHWYQQKPGKAPKLLIKYASQSLSGVPSRFSGSGSGTEFTLTISSLQPEDFATYYCHQSSRLPFTFGPGTKVDIKRTVAAPSVFIFPPSDEQLKSGTASVVCLLNNFYPREAKVQWKVDNALQSGNSQESVTEQDSKDSTYSLESTLTLSKADYEKHKVYACEVTHQGLSSPVTKSFNRGEC
heavy 1: not shown
light 2: QSVLTQPPSVSAAPGQKVTISCSGSSSNIGNNYVSWYQQLPGTAPKLLIYDNNKRPSGIPDRFSGSKSGTSATLGITGLQTGDEADYYCGTWDSRLSAVVFGGGTKLTVLGQPKANPTVTLFPPSSEELQANKATLVCLISDFYPGAVTVAWKADGSPVKAGVETTKPSKQSNNKYAAKSYLSLTPEQWKSHRSYSCQVTHEGSTVEKTVAPTECS
heavy 2: QVQLVESGGGVVQPGRSLRLSCAASGFTFSSFGMHWVRQAPGKGLEWVAVISFDGSIKYSVDSVKGRFTISRDNSKNTLFLQMNSLRAEDTAVYYCARDRLNYYDSSGYYHYKYYGMAVWGQGTTVTVSSASTKGPSVFPLAPSSKSTSGGTAALGCLVKDYFPEPVTVSWNSGALTSGVHTFPAVLQSSGLYSLESVVTVPSSSLGTQTYICNVNHKPSNTKVDKKVEPKSCDKTHTCPPCPAPELLGGPSVFLFPPKPKDTLMISRTPEVTCVVVDVSHEDPEVKFNWYVDGVEVHNAKTKPCEEQYGSTYRCVSVLTVLHQDWLNGKEYKCKVSNKALPAPIEKTISKAKGQPREPQVYTLPPSRKEMTKNQVSLTCLVKGFYPSDIAVEWESNGQPENNYKTTPPVLKSDGSFFLYSKLTVDKSRWQQGNVFSCSVMHEALHNHYTQKSLSLSPGK
As for B4, the “% inhibition of human PAC1” value with human PAC1 receptor turned out to be 56%. Further, the “% inhibition of human CGRPR” value with human CGRP receptor was found to be 88%.

B5: iPS:327693 (bispecific antibody, human IgG1, kappa, lambda, N297G)
light 1: EIVLTQSPATLSLSPGERATLSCRASQSVGRSLHWYQQKPGQAPRLLIKYASQSLSGIPARFSGSGSGTDFTLTISSLEPEDFAVYYCHQSSRLPFTFGPGTKVDIKRTVAAPSVFIFPPSDEQLKSGTASVVCLLNNFYPREAKVQWKVDNALQSGNSQESVTEQDSKDSTYSLESTLTLSKADYEKHKVYACEVTHQGLSSPVTKSFNRGEC
heavy 1: not shown
light 2: QSVLTQPPSVSAAPGQKVTISCSGSSSNIGNNYVSWYQQLPGTAPKLLIYDNNKRPSGIPDRFSGSKSGTSTTLGITGLQTGDEADYYCGTWDSRLSAVVFGGGTKLTVLGQPKANPTVTLFPPSSEELQANKATLVCLISDFYPGAVTVAWKADGSPVKAGVETTKPSKQSNNKYAAKSYLSLTPEQWKSHRSYSCQVTHEGSTVEKTVAPTECS
heavy 2: QVQLVESGGGVVQPGRSLRLSCAASGFTFSSFGMHWVRQAPGKGLEWVAVISFDGSIKYSVDSVKGRFTISRDNSKNTLFLQMNSLRAEDTAVYYCARDRLNYYESSGYYHYKYYGMAVWGQGTTVTVSSASTKGPSVFPLAPSSKSTSGGTAALGCLVKDYFPEPVTVSWNSGALTSGVHTFPAVLQSSGLYSLESVVTVPSSSLGTQTYICNVNHKPSNTKVDKKVEPKSCDKTHTCPPCPAPELLGGPSVFLFPPKPKDTLMISRTPEVTCVVVDVSHEDPEVKFNWYVDGVEVHNAKTKPCEEQYGSTYRCVSVLTVLHQDWLNGKEYKCKVSNKALPAPIEKTISKAKGQPREPQVYTLPPSRKEMTKNQVSLTCLVKGFYPSDIAVEWESNGQPENNYKTTPPVLKSDGSFFLYSKLTVDKSRWQQGNVFSCSVMHEALHNHYTQKSLSLSPGK
B5: in the test with human PAC1 receptor, the “% inhibition of human PAC1” value was determined as 82%. Further, in the test with human CGRP receptor, the “% inhibition of human CGRPR” value stood at 76%.

B6: iPS:327696 (bispecific antibody, human IgG1, kappa, lambda, N297G)
light 1: not shown
heavy 1: not shown
light 2: QSVLTQPPSVSAAPGQKVTISCSGSSSNIGNNYVSWYQQLPGTAPKLLIYDNNKRPSGIPDRFSGSKSGTSTTLGITGLQTGDEADYYCGTWDSRLSAVVFGKGTKLTVLGQPKANPTVTLFPPSSEELQANKATLVCLISDFYPGAVTVAWKADGSPVKAGVETTKPSKQSNNKYAAKSYLSLTPEQWKSHRSYSCQVTHEGSTVEKTVAPTECS
heavy 2: QVQLVESGGGVVQPGRSLRLSCAASGFTFSSFGMHWVRQAPGKELEWVAVISFDGSIKYSVDSVKGRFTISRDNSKNTLFLQMNSLRAEDTAVYYCARDRLNYYESSGYYHYKYYGMAVWGQGTTVTVSSASTKGPSVFPLAPSSKSTSGGTAALGCLVKDYFPEPVTVSWNSGALTSGVHTFPAVLQSSGLYSLESVVTVPSSSLGTQTYICNVNHKPSNTKVDKKVEPKSCDKTHTCPPCPAPELLGGPSVFLFPPKPKDTLMISRTPEVTCVVVDVSHEDPEVKFNWYVDGVEVHNAKTKPCEEQYGSTYRCVSVLTVLHQDWLNGKEYKCKVSNKALPAPIEKTISKAKGQPREPQVYTLPPSRKEMTKNQVSLTCLVKGFYPSDIAVEWESNGQPENNYKTTPPVLKSDGSFFLYSKLTVDKSRWQQGNVFSCSVMHEALHNHYTQKSLSLSPGK
In the case of B6, the “% inhibition of human PAC1” value with human PAC1 receptor came out at 10%. Further, in the test with human CGRP receptor, the “% inhibition of human CGRPR” value came to 87%.

B7: iPS:327694 (bispecific antibody, human IgG1, kappa, lambda, N297G)
light 1: DIQMTQSPSSLSASVGDRITITCRASQSISRYLNWYQQKPGKAPKLLIYAASSLQSGIPSRFSGSGSGTDFTLTINSLQPEDFATYFCQQSYSPPFTFGEGTKVDIKRTVAAPSVFIFPPSDEQLKSGTASVVCLLNNFYPREAKVQWKVDNALQSGNSQESVTEQDSKDSTYSLESTLTLSKADYEKHKVYACEVTHQGLSSPVTKSFNRGEC
heavy 1: not shown
light 2: QSVLTQPPSVSAAPGQKVTISCSGSSSNIGNNYVSWYQQLPGTAPKLLIYDNNKRPSGIPDRFSGSKSGTSTTLGITGLQTGDEADYYCGTWDSRLSAVVFGKGTKLTVLGQPKANPTVTLFPPSSEELQANKATLVCLISDFYPGAVTVAWKADGSPVKAGVETTKPSKQSNNKYAAKSYLSLTPEQWKSHRSYSCQVTHEGSTVEKTVAPTECS
heavy 2: QVQLVESGGGVVQPGRSLRLSCAASGFTFSSFGMHWVRQAPGKELEWVAVISFDGSIKYSVDSVKGRFTISRDNSKNTLFLQMNSLRAEDTAVYYCARDRLNYYESSGYYHYKYYGMAVWGQGTTVTVSSASTKGPSVFPLAPSSKSTSGGTAALGCLVKDYFPEPVTVSWNSGALTSGVHTFPAVLQSSGLYSLESVVTVPSSSLGTQTYICNVNHKPSNTKVDKKVEPKSCDKTHTCPPCPAPELLGGPSVFLFPPKPKDTLMISRTPEVTCVVVDVSHEDPEVKFNWYVDGVEVHNAKTKPCEEQYGSTYRCVSVLTVLHQDWLNGKEYKCKVSNKALPAPIEKTISKAKGQPREPQVYTLPPSRKEMTKNQVSLTCLVKGFYPSDIAVEWESNGQPENNYKTTPPVLKSDGSFFLYSKLTVDKSRWQQGNVFSCSVMHEALHNHYTQKSLSLSPGK
Turning to B7, in the test with human PAC1 receptor, the “% inhibition of human PAC1” value stood at 75%. The “% inhibition of human CGRPR” value in the test with human CGRP receptor was found to be 87%.

Values taken from US20170306033A1 (Amgen, published 2017).
